Here are results for one substance from patent US20140296492A1.

For this assay, the target named is HLA-A2-… complex on cells (human). Briefly: cell-based or functional assay.

The substance anti-HLA-A2 antibody BB7.2 yielded a blocking of WT1 Clone 45 CAR-mediated cytotoxicity against …-pulsed DIMT BLCL (51Cr release), antibody at 5 µg/ml of 45%.
